Results: IntAct's records for PubMed 25266290

B1: Ras-related protein Rab-5A (Homo sapiens), P20339 (parent)
chain: MASRGATRPNGPNTGNKICQFKLVLLGESAVGKSSLVLRFVKGQFHEFQESTIGAAFLTQTVCLDDTTVKFEIWDTAGQERYHSLAPMYYRGAQAAIVVYDITNEESFARAKNWVKELQRQASPNIVIALSGNKADLANKRAVDFQEAQSYADDNSLLFMETSAKTSMNVNEIFMAIAKKLPKNEPQNPGANSARGRGVDLTEPTQPTRNQCCSN
partner: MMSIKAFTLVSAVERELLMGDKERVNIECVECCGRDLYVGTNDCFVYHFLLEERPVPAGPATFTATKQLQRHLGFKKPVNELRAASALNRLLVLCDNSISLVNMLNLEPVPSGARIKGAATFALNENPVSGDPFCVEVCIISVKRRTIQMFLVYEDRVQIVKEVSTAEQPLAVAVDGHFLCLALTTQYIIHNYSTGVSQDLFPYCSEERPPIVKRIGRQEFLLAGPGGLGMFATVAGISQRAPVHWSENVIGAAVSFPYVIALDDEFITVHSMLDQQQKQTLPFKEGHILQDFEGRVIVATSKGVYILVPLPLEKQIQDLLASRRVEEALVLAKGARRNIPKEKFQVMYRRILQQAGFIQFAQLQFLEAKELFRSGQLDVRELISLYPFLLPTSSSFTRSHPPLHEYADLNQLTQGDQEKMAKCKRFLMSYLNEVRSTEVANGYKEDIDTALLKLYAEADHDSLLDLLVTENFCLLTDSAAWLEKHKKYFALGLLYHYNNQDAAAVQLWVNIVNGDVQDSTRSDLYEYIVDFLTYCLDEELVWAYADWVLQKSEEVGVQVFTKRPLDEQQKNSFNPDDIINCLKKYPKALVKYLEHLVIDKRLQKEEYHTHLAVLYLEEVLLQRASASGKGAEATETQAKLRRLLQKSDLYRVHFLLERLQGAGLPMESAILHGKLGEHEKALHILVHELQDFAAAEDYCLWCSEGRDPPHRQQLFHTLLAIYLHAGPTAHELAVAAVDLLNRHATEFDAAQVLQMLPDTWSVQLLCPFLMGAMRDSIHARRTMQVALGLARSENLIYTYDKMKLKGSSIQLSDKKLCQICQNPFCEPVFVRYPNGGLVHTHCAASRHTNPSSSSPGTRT

Variants of: B1
Conditions: with tgfa1_human TGFBRAP1, Q8WUH2

Row | Variant | effect of a mutation on the interaction
1 | MASRGATRPNGPNTGNKICQFKLVLLGESAVGKNSLVLRFVKGQFHEFQESTIGAAFLTQTVCLDDTTVKFEIWDTAGQERYHSLAPMYYRGAQAAIVVYDITNEESFARAKNWVKELQRQASPNIVIALSGNKADLANKRAVDFQEAQSYADDNSLLFMETSAKTSMNVNEIFMAIAKKLPKNEPQNPGANSARGRGVDLTEPTQPTRNQCCSN [S34N] | decreasing interaction
